In patent publication US20220332804A1 (CSL INNOVATION, published 2022):

Assays:
Experiment in all cases: SPR, antibody captured, C2 as analyte;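 further: biacore at 37 °C, anti-C2 mAbs held by immobilised goat anti-human IgG, C2 alanine or serine mutants injected, double-referenced sensorgrams fitted to a 1:1 kinetic or steady-state model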
human C2 L271A = molecular target: T1, human C2 L271A (human, UniProt P06681 21-752)
T1 sequence: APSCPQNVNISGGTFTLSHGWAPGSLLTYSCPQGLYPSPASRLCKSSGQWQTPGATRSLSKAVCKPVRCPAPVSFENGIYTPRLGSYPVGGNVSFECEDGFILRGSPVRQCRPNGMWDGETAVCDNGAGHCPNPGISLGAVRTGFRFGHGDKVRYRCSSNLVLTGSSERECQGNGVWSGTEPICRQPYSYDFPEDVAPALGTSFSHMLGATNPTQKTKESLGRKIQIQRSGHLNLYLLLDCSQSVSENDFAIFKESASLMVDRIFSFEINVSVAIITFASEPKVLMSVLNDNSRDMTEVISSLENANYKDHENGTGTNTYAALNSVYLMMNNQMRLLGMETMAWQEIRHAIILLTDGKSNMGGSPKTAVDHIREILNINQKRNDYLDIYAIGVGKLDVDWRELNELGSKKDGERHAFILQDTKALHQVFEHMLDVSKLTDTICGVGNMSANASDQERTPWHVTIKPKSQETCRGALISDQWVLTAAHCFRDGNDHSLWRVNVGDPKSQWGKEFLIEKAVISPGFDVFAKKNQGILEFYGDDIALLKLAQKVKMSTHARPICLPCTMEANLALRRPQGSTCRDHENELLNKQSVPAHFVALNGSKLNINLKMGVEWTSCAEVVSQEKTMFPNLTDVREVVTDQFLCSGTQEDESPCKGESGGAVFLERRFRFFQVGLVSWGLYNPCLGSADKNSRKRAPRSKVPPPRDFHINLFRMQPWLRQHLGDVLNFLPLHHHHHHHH
Procedure: (§1) Surface plasmon resonance (SPR, Biacore) was used for all binding affinity analyses. In brief, goat anti-human IgG was directly immobilised onto the carboxymethyl dextran surface of CM5 sensorchips to approximately 12,000 RU using standard NHS/EDC chemistry at pH 5. The immobilised antibody surface was pre-conditioned with ten injections of polyclonal human IgG (Privigen 60 s) prepared at 1 μg/mL. Ligands (anti-C2 mAbs) were captured at the beginning of each cycle as described below. An adjacent spot or flow cell in which only Polyclonal IgG was capture was used as a reference surface. The goat anti-human IgG Fc antibody surface was regenerate in 100 mM H3PO4, injected for 45 seconds at the end of each cycle. Experiments were performed at 37° C. and the flow rate of each experiment was kept constant at 30 μL/min.
(§2) Sensogram data was double-referenced against a reference anti-IgG surface (i.e. minus anti-C2 mAb) and blank buffer injections obtained within each experiment. The binding data was fit to 1:1 (kinetic or steady-state) model using local Rmax and null refraction index (RI=0) when appropriate. Buffers and solutions were filtered (0.22 μm) prior to use.

human C2 D431A = molecular target: T2, human C2 D431A (human, UniProt P06681 21-752)
T2 sequence: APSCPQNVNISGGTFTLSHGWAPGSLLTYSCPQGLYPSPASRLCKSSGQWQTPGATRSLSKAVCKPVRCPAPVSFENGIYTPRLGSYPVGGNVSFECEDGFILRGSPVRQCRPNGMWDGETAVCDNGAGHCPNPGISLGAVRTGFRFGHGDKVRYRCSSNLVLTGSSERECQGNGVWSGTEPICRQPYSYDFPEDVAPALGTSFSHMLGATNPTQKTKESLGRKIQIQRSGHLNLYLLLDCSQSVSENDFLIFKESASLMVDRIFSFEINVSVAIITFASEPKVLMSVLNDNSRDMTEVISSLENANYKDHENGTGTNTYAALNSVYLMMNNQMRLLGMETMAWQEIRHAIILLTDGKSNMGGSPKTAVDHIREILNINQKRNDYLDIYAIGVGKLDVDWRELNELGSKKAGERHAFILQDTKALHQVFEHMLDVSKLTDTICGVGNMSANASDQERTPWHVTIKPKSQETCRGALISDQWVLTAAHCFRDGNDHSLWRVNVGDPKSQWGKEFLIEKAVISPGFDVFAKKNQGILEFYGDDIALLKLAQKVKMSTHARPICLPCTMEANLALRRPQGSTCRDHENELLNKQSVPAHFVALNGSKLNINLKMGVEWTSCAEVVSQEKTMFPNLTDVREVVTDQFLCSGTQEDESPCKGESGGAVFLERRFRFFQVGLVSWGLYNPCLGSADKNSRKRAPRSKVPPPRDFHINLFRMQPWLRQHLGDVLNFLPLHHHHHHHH
Procedure: as §1, §2

human C2 G466A = molecular target: T3, human C2 G466A (human, UniProt P06681 21-752)
T3 sequence: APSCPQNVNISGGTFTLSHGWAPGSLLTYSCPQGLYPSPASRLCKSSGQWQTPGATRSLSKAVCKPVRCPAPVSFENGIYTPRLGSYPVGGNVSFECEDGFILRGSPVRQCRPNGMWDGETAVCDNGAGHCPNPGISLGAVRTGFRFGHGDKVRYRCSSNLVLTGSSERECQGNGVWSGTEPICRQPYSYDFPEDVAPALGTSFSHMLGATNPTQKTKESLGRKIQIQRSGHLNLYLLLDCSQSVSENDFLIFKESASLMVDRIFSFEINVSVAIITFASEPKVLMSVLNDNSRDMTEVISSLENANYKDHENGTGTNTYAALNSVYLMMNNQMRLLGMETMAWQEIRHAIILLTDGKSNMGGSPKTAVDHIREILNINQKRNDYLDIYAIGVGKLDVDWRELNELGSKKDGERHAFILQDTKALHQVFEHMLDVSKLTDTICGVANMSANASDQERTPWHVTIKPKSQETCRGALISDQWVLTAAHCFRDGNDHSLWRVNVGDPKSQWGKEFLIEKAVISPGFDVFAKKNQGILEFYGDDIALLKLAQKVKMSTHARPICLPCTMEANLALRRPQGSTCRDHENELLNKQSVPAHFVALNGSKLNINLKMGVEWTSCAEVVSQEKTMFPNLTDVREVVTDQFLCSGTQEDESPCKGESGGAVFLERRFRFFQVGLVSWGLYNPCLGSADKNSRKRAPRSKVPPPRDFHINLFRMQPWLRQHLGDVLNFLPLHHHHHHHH
Procedure: as §1, §2

human C2 V418A = molecular target: T4, human C2 V418A (human, UniProt P06681 21-752)
T4 sequence: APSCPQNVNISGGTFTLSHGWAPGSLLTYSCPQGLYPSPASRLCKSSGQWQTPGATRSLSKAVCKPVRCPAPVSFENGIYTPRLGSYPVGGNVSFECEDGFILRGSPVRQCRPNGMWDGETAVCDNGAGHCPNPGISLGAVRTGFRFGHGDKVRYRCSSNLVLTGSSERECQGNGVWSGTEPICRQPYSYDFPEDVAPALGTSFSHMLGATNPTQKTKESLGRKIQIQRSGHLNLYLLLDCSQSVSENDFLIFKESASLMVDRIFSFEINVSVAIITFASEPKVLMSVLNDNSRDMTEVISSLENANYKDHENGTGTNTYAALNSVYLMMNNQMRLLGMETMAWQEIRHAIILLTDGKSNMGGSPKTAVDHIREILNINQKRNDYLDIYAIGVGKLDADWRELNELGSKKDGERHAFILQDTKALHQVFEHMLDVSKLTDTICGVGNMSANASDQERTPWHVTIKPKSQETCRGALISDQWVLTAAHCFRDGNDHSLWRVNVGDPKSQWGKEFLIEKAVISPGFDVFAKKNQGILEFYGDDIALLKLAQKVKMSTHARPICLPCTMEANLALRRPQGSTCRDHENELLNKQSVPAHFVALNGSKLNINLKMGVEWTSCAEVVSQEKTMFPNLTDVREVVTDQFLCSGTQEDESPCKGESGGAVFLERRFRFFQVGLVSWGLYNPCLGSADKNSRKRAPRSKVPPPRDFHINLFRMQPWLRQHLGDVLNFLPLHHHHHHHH
Procedure: as §1, §2

B1: RF16-242 (antibody, human IgG4 S228P, lambda, V domains shown)
VH: EVQLLQSGAEVKKPGESLKISCKGSGYSFTSYWIGWVRQMPGKGLEWMGIIYPGDSDTRYSPSFQGQVTISADKSISTAYLQWSSLKASDTAMYYCARRGHYGDYFDYWGQGTLVTVSS
VL: SYELTQPPSVSVSPGQTARITCSGDALPKKYAYWYHQKSGQAPVLVIYEDRRRPSEIPERFSGSSSGTMATLTITGAQVEDEGVYFCYSRDRAGNQRVFGGGTQLTVLG
notes: pH-dependent anti-C2 antibody from a phage display library
Human C2 L271A
  Kd: 6.9 nM
Human C2 D431A
  Kd: 22.9 nM
Human C2 G466A
  Kd: 24.9 nM
Human C2 V418A
  Kd: 6.8 nM
